Test results from US20140274782A1, “AFFINITY REAGENTS AND METHODS FOR DETECTION, PURIFICATION, AND PROTEOMIC ANALYSIS OF METHYLATED PROTEINS” (The Board of Trustees of the Leland Stanford Junior …, priority 2013, published 2014).

Tests used:
[1] = biological target: T1, G9a and GLP (Homo sapiens, UniProt Q96KQ7+Q9H9B1); assay: Triple SILAC pull-down after UNC0638 treatment of 293T cells, DMSO/UNC0638 ratio of protein captured by 3×MBT; format: cell-based; conditions: for Relative to UNC0638 UNC Heavy: UNC0638 in heavy SILAC media; for Relative to UNC0638 UNC Light: UNC0638 in light SILAC media; for Relative to UNC0638 Average: average of UNC Light and UNC Heavy experiments; for Protein Ratios DMSO/UNC0638: SILAC ratio of protein captured by 3xMBT, 293T cells treated 24 hours with UNC0638 at 2.5 μM or DMSO;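 on all read-outs here: mass spectrometry (Q-Exactive) SILAC quantitation, DMSO/UNC0638 ratio computed after subtracting 3×MBTD355N mutant pull-down background, only proteins with at least twofold 3×MBT over mutant signal considered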
T1 construct: endogenous in cells; host or cells: HEK 293T
T1 sequence (Q96KQ7 2-1210 limits assumed): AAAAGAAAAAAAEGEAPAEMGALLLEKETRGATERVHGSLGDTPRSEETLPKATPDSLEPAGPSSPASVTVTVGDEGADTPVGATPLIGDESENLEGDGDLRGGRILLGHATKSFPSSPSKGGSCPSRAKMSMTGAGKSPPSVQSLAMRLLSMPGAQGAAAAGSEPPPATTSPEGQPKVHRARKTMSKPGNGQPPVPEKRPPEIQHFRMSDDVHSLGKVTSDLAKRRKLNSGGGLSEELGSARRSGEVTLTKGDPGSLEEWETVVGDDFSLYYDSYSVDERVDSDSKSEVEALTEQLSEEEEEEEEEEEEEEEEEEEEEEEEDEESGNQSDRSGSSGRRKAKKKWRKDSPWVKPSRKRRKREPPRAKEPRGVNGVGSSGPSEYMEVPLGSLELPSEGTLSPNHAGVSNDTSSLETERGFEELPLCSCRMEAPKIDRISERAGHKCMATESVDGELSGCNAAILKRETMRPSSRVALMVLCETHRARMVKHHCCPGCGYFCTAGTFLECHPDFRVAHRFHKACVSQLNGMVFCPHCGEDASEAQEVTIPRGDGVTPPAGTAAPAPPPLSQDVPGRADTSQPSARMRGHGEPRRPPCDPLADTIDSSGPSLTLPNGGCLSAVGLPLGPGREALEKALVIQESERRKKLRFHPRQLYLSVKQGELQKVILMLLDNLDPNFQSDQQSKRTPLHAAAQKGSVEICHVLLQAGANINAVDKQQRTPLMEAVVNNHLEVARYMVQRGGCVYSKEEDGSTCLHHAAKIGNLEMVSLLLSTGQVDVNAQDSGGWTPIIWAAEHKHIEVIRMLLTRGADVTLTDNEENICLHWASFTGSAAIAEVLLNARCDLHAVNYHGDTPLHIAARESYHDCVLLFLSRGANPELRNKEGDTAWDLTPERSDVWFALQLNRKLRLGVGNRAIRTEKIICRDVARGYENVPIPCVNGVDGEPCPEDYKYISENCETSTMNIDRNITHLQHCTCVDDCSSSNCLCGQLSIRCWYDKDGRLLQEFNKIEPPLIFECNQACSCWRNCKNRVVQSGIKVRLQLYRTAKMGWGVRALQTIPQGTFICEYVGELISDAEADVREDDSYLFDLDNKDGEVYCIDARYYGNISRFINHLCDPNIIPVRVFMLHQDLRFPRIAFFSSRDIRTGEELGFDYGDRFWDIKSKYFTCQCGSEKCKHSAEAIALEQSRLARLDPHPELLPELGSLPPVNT
T1 sequence (Q9H9B1 2-1298 limits assumed): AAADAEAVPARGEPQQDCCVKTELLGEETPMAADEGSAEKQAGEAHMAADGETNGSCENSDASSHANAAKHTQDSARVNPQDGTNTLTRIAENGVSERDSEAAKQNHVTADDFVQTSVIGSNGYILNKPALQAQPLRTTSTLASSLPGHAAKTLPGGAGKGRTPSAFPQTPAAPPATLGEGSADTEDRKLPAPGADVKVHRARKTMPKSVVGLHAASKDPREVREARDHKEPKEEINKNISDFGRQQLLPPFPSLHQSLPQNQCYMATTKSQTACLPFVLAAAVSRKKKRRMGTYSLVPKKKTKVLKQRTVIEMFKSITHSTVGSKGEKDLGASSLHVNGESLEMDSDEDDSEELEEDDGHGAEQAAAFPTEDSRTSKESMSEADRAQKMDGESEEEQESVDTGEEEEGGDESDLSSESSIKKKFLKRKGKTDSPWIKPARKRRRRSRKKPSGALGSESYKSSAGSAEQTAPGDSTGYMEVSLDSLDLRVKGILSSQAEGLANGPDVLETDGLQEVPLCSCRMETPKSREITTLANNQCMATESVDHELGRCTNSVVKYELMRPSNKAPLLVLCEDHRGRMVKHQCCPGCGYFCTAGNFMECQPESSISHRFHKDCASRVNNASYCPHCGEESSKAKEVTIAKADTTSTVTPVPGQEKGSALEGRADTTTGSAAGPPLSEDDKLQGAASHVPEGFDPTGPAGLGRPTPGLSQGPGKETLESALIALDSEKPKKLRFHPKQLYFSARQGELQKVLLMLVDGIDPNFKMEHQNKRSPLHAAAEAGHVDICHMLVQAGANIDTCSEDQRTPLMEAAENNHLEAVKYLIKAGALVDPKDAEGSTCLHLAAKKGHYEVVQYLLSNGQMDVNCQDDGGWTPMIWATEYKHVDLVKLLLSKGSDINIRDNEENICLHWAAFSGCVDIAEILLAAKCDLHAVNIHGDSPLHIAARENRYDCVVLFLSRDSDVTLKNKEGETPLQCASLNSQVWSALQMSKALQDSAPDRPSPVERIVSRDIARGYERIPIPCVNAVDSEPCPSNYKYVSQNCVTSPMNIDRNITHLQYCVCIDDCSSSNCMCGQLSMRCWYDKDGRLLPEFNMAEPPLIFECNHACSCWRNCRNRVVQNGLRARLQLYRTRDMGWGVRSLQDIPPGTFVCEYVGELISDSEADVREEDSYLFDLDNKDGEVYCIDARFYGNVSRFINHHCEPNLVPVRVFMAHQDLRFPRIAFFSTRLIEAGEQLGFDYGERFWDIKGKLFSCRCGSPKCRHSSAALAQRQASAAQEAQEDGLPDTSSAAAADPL

[2] = system: 3×MBT domain of L3MBTL1; assay: Triple SILAC pull-down, 3xMBT/3xMBTD355N ratio (cytoplasmic, nuclear and chromatin fractions of 293T cells); format: binding, human; conditions: for 3xMBT/D355N UNC Heavy: experiment with UNC0638 in heavy SILAC media; for 3xMBT/D355N UNC Light: experiment with UNC0638 in light SILAC media; for Protein Ratios 3xMBT/D355N: pull-down by 3xMBT vs 3xMBTD355N;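 on all read-outs here: proteins quantified with MaxQuant, requiring at least two unique peptides and quantification in both label directions, normalized to the mean of proteins from a digested loading control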
[3] = SILAC ratio DMSO/UNC0638 of protein pulled down with 3xMBT
[4] = SILAC ratio, pull-down 3xMBT vs 3xMBTD355N
[5] = SILAC ratio DMSO relative to UNC0638, pull-down with 3xMBT, all values in log base 2
[6] = SILAC ratio 3xMBT vs 3xMBTD355N pull-down, 293T cells, all values in log base 2

| Substance | Relative to UNC0638 UNC Heavy [1, 3] [log base 2] | Relative to UNC0638 UNC Light [1, 3] [log base 2] | Relative to UNC0638 Average [1] [log base 2] | 3xMBT/D355N UNC Heavy [2, 4] [log base 2] | 3xMBT/D355N UNC Light [2, 4] [log base 2] | Protein Ratios DMSO/UNC0638 [1] | Protein Ratios 3xMBT/D355N ([2]; SILAC ratio, 293T cells) | Relative to UNC0638 UNC Heavy [1, 5] [log base 2] | Relative to UNC0638 UNC Light [1, 5] [log base 2] | Relative to UNC0638 Average ([1]; all values in log base 2) [log base 2] | 3xMBT/D355N UNC Heavy [2, 6] [log base 2] | 3xMBT/D355N UNC Light [2, 6] [log base 2] |
| --- | --- | --- | --- | --- | --- | --- | --- | --- | --- | --- | --- | --- |
| DHX9 | 0.08 | 0.28 | 0.18 | 3.27 | 3.53 | – | – | – | – | – | – | – |
| DIDO1 | 0.00 | 0.37 | 0.18 | 1.35 | 3.36 | – | – | – | – | – | – | – |
| DNA-binding protein A | – | – | – | – | – | 1.4 | 11.1 | – | – | – | – | – |
| DNA-dependent protein kinase catalytic subunit | – | – | – | – | – | 1.5 | 4.5 | – | – | – | – | – |
| DNM2 | – | 0.54 | 0.54 | 0.05 | 0.57 | – | – | – | – | – | – | – |
| DNMT1 | 0.46 | −0.19 | 0.13 | 1.70 | 2.02 | – | – | – | – | – | – | – |
| EEF1G | – | – | – | – | – | – | – | −0.03 | −0.77 | −0.40 | −0.67 | −0.28 |
| EFTUD2 | 0.36 | 0.33 | 0.34 | 1.98 | 2.07 | – | – | – | – | – | – | – |
| EIF4A1 | 0.30 | 0.05 | 0.18 | 3.59 | 3.68 | – | – | – | – | – | – | – |
| EIF4B | – | – | – | – | – | – | – | −0.32 | 0.03 | −0.15 | 3.26 | 2.50 |
| EIF4E | 0.04 | 0.31 | 0.18 | 2.40 | 2.40 | – | – | – | – | – | – | – |
| EIF4G1 | 0.07 | 0.25 | 0.16 | 3.18 | 3.31 | – | – | – | – | – | – | – |
| ELAVL1 | 0.21 | 0.36 | 0.29 | 1.93 | 2.42 | – | – | – | – | – | – | – |
| EPRS | – | – | – | – | – | – | – | −0.64 | 0.63 | −0.01 | 0.46 | 1.98 |
| FAM98A | 0.57 | 0.19 | 0.38 | 2.99 | 4.03 | – | – | – | – | – | – | – |
| FBXO22 | – | – | – | – | – | – | – | 0.58 | −0.59 | 0.00 | 3.56 | 0.77 |
| FERMT2 | – | – | – | – | – | – | – | −1.93 | −0.07 | −1.00 | 3.33 | 1.42 |
| FOCAD | 0.20 | 0.20 | 0.20 | 1.83 | 2.73 | – | – | – | – | – | – | – |
